Results from patent US20170355757A1 (Regeneron, published 2017).

T1: monkey C5-mmh (monkey, UniProt P01031 19-1676 (human entry), limits assumed)
T1 construct: Expressed with a C-terminal myc-myc-hexahistidine tag
T1 chain: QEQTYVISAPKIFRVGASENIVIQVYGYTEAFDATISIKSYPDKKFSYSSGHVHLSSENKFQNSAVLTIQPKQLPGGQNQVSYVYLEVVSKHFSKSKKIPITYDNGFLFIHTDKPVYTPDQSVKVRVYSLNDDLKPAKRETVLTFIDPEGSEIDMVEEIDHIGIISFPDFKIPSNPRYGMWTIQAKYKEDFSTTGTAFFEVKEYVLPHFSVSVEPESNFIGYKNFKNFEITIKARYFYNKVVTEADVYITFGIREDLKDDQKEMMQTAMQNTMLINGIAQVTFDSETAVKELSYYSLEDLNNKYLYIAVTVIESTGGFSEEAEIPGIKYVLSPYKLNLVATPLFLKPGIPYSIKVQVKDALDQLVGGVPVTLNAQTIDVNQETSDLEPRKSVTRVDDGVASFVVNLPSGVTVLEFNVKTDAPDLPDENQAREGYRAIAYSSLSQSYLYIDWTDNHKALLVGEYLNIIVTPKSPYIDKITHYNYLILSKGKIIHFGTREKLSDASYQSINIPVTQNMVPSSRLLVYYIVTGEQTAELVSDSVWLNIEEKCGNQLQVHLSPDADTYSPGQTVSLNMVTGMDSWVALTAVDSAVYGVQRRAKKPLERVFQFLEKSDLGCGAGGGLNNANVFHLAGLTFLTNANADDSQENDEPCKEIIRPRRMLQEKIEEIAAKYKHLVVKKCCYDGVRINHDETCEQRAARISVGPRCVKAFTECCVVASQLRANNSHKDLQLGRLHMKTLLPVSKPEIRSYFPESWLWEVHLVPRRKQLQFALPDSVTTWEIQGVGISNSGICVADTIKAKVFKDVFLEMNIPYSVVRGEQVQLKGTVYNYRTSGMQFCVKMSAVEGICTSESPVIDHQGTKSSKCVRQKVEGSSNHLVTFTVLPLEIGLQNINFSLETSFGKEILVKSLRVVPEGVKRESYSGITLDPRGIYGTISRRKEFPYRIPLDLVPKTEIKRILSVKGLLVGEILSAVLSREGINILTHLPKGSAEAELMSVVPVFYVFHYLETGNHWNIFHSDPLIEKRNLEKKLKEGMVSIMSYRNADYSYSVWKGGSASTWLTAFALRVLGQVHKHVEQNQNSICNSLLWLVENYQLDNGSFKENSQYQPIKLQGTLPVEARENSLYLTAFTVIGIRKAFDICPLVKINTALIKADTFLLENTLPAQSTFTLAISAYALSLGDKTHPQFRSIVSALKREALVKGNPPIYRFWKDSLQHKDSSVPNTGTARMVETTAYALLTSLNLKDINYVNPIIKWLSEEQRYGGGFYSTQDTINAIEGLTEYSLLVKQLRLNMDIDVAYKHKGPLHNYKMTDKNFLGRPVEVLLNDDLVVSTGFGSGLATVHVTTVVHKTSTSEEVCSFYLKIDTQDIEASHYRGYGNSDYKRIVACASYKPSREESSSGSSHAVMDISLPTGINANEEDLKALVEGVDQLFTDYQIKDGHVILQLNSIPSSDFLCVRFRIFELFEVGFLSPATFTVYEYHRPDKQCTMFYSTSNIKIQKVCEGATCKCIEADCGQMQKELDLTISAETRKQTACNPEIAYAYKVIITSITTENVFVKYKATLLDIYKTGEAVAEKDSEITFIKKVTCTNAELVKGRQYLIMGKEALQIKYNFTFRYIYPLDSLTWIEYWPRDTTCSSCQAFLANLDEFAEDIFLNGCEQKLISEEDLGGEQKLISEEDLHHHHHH

T2: monkey C5-mmh (monkey, UniProt P01031 19-1676 (human entry), limits assumed)
T2 construct: Recombinant monkey C5 with a C-terminal myc-myc-hexahistidine tag
T2 chain: T1 chain

B1: H4H12171P (antibody, human IgG4, V domains shown)
VH: EVQLVESGGGVVRPGGSLRLSCAASGFTFDEYGMTWVRQVPGKGLEWVSGITWNGGFTDYTDSVKGRFTSSRDNAKNSLYLQMNSLRAEDTALYYCARDGYSSSWGAYDIWGQGTMVTVSS
VL: DIQMTQSPSSLSASVGDRVTITCRASQSISTYLNWYQQKPGKAPKLLIYAASSLQSGVPLRFSGSGSGTDFTLTISSLQPEDFASYFCQQSYSTPYTFGQGTKLEIK
B2: H4H12161P (antibody, human IgG4, V domains shown)
VH: EVQLVESGGDLVQPGGSLRLSCAASGFTFSDHYMDWVRQAPGKGLDWIGRIRNKANAYNTEYAASVRGRFTISRDDSQNLLYLQMNSLKTDDTAVYYCVRVWNYAYFAMDVWGQGTTVTVSS
VL: DIQMTQSPSSLSASVGDRVTITCRSSQNIGIFLNWYQQKPGEAPNLLISAASSLHSGVPSRFSGSGSGTDFTLTIGSLQPEDFATYYCQQTYNTIFTFGPGTKVDIK
B3: H4H12161P (antibody, human IgG4, V domains shown)
VH: B2 VH
VL: B2 VL
notes: Human IgG4 Fc with S108P hinge mutation (H4H)
B4: H4H12176P2 (antibody, human IgG4, V domains shown)
VH: EVQLVESGGGLVQPGGSLRLSCAASGFHSNRYWMDWVRQAPGKGLEWVANIKQDGSEENYVDSVKGRFTISRDNAKNSLYLQMNSLRAEDTAVYYCARDRSTSWVPYWFFDLWGRGTLVTVSS
VL: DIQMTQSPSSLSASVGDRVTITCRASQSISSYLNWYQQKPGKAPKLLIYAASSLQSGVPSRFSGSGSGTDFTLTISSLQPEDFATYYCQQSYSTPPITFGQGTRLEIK
notes: as for B3
B5: H4H11683N (antibody, human IgG4, V domains shown)
VH: QVQLVESGGGVVQPGRSLRLSCVASGFTFSSYGIHWVRQAPGKGLEWVAVIWDDGNNINYSDSVKGRFIISRDNSRKTVYLQMNSLRGEDTAVYYCARDAPIAPVPDYWGQGTLVTVSS
VL: DIQMTQSPSTLSASVGDRVTITCRASQSISSWLAWYQQKPGKAPKLLIYKASSLDTGVPSRFSGSGSGTEFTLTISSLQPDDFATYYCQQYNTYSYTFGLGTKLEIK
notes: also called H2M11683N

Assays:
[1] = target: T3, Human C5 (human, UniProt P01031 19-1676); assay: SPR, mAb captured by anti-hFc, 37C
T3 construct: The natural protein has a beta and an alpha chain; also called complement factor 5; complement component 5
Method in brief: (§1)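 KD from kd/ka, obtained by 1:1 fitting of Biacore sensorgrams; C5 analytes flowed over anti-C5 mAbs held by immobilized anti-hFc antibody. Running buffer HBST pH 7.4 with EDTA and P20; 3 min association, 8 min dissociation.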

[2] = target: T3, Human C5; assay: SPR, mAb captured by anti-hFc, 25C
Method in brief: as §1

[3] = target: T1, monkey C5-mmh; assay: SPR, mAb captured by anti-hFc, 25C
Method in brief: as §1

[4] = target: T4, human C5 R885H-mmh (human, UniProt P01031 19-1676); assay: SPR, mAb captured via anti-hFc, 25C
T4 construct: also called human C5 variant R885H
Description: (§2) Equilibrium dissociation constants (KD values) for C5 binding to purified anti-C5 antibodies were determined using a real-time surface plasmon resonance biosensor assay on a Biacore T200 instrument. The Biacore sensor surface was derivatized by amine coupling with a monoclonal mouse anti-human Fc antibody (GE Healthcare, # BR-1008-39) to capture anti-C5 antibodies expressed with human Fc constant regions. Biacore binding studies were conducted in HBST running buffer (0.01M HEPES pH 7.4, 0.15M NaCl, 3 mM EDTA, 0.05% v/v Surfactant P20).
(§3) Human C5 was obtained from a commercial source (EMD). Other C5 reagents were expressed with a C-terminal myc-myc-hexahistidine tag (subsequently referred to as C5-mmh). […] Association of all the C5 reagents to each of the captured monoclonal antibodies was monitored for 3 minutes and their dissociation in HBST running buffer was monitored for 8 minutes. All the binding kinetics experiments were performed at either 25° C. or 37° C. Kinetic association (kₐ) and dissociation (kd) rate constants were determined by fitting the real-time sensorgrams to a 1:1 binding model using Scrubber 2.0c curve fitting software. Binding dissociation equilibrium constants (KD) and dissociative half-lives (t %) were calculated from the kinetic rate constants as: KD (M)=kd/kₐ and t_{1/2} (min)=In2/(60×kd)

[5] = target: T5, human C5 R885C-mmh (human, UniProt P01031 19-1676); assay: SPR, mAb captured via anti-hFc, 25C
T5 construct: also called human C5 variant R885C
Description: as §2, §3

[6] = target: T4, human C5 R885H-mmh; assay: SPR, mAb captured via anti-hFc, 37C
Description: as §2, §3

[7] = target: T5, human C5 R885C-mmh; assay: SPR, mAb captured via anti-hFc, 37C
Description: as §2, §3

[8] = target: T2, monkey C5-mmh; assay: SPR, mAb captured via anti-hFc, 37C
Description: as §2, §3

Binder | 100 nM Human C5 Bound (RU) [1] [RU] | Kd [1] [nM] | koff [1] [s⁻¹] | kon [1] [M⁻¹ s⁻¹] | t½ [1] [min] | 100 nM Human C5 Bound (RU) [2] [RU] | Kd [2] [nM] | koff [2] [s⁻¹] | kon [2] [M⁻¹ s⁻¹] | t½ [2] [min] | 100 nM monkey C5-mmh Bound (RU) [3] [RU] | Kd [3] [nM] | koff [3] [s⁻¹] | kon [3] [M⁻¹ s⁻¹] | t1/2 [3] [min] | 100 nM Human C5 R885H-mmh Bound (RU) [4] [RU] | Kd [4] [nM] | koff [4] [s⁻¹] | kon [4] [M⁻¹ s⁻¹] | t1/2 [4] [min] | other results
B1 | 58 | 6.27 | 0.000762 | 122000 | 15 | 64 | 0.549 | 8.16e-05 | 149000 | 142 | 17 | 4.92 | 0.000226 | 46000 | 51 | – | – | – | – | – | –
B2 | 66 | 0.99 | 0.000115 | 116000 | 101 | 64 | 0.17 | 4.37e-05 | 258000 | 264 | 45 | 0.392 | 2.48e-05 | 63300 | 465 | – | – | – | – | – | –
B3 | – | – | – | – | – | – | – | – | – | – | – | – | – | – | – | 199 | 0.996 | 8.32e-05 | 83600 | 139 | 100 nM Human C5 R885C-mmh Bound (RU) [5]: 147 RU; Kd [5]: 0.672 nM; koff [5]: 8.71e-05 s⁻¹; kon [5]: 130000 M⁻¹ s⁻¹; t1/2 [5]: 133 min; 100 nM Human C5 R885H-mmh Bound (RU) [6]: 54 RU; Kd [6]: 7.84 nM; koff [6]: 0.000925 s⁻¹; kon [6]: 118000 M⁻¹ s⁻¹; t1/2 [6]: 12 min; 100 nM Human C5 R885C-mmh Bound (RU) [7]: 49 RU; Kd [7]: 8.17 nM; koff [7]: 0.000901 s⁻¹; kon [7]: 110000 M⁻¹ s⁻¹; t1/2 [7]: 13 min; 100 nM monkey C5-mmh Bound (RU) [8]: 53 RU; Kd [8]: 5.56 nM; koff [8]: 0.000745 s⁻¹; kon [8]: 134000 M⁻¹ s⁻¹; t1/2 [8]: 16 min
B4 | – | – | – | – | – | – | – | – | – | – | – | – | – | – | – | 65 | 1.22 | 0.000217 | 178000 | 53 | 100 nM Human C5 R885C-mmh Bound (RU) [5]: 63 RU; Kd [5]: 2.03 nM; koff [5]: 0.000218 s⁻¹; kon [5]: 107000 M⁻¹ s⁻¹; t1/2 [5]: 53 min; 100 nM Human C5 R885H-mmh Bound (RU) [6]: 69 RU; Kd [6]: 3.73 nM; koff [6]: 0.000958 s⁻¹; kon [6]: 257000 M⁻¹ s⁻¹; t1/2 [6]: 12 min; 100 nM Human C5 R885C-mmh Bound (RU) [7]: 55 RU; Kd [7]: 7.32 nM; koff [7]: 0.00103 s⁻¹; kon [7]: 141000 M⁻¹ s⁻¹; t1/2 [7]: 11 min; 100 nM monkey C5-mmh Bound (RU) [8]: 47 RU; Kd [8]: 9.6 nM; koff [8]: 0.00129 s⁻¹; kon [8]: 135000 M⁻¹ s⁻¹; t1/2 [8]: 9 min
B5 | 492 | 0.532 | 0.000241 | 454000 | 48 | 439 | 0.123 | 5.14e-05 | 417000 | 225 | 403 | 0.64 | 0.000247 | 386000 | 47 | – | – | – | – | – | –
